In the assay the target is huTIM-3 Fc (R&D; cat.no. 2365-TM) (human) (UniProt Q8TDQ0). The assay is described as follows: Galectin-9 blocking ELISA: coated Galectin-9 (competitor), 0.1875 ug/ml huTIM-3 Fc with negative control antibody; signal is huTIM-3 Fc bound.
Chain of huTIM-3 Fc (R&D; cat.no. 2365-TM) (human) (Q8TDQ0 22-200 limits assumed): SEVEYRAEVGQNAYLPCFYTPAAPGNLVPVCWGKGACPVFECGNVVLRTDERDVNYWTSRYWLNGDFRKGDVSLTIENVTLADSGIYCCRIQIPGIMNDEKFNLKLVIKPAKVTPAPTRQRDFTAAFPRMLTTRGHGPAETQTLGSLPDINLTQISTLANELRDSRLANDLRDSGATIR

The substance negative control antibody (Ctrl mAb) displayed an OD of 1.15 OD450.

(Values after patent US20230357407A1.)
